Results: the supplement of paper PMC9170038

System: MS2 coat protein
Test: apparent KD of MS2 coat protein; designed switch direction (-1 OFF switch, 1 ON switch): -1; higher = weaker reporter binding
In short: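 Designed RNA switches sharing common flanks were transcribed on Illumina chips by stalled E. coli RNA polymerase. They were titrated with SNAP-549-labelled MS2 coat protein, from 0.7 or 1.5 nM doubling to 3 µM, in Tris-HCl pH 7.5 buffer with KCl, MgCl2, BSA, DTT, tRNA and Tween-20. Titrations ran without input, with 200 uM small-molecule ligand, or with an oligonucleotide input. The apparent KD of each design is the median over its clusters, after curve-fitting of normalised cluster fluorescence.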

[1] = Eterna round: R95, input ligand: microRNA oligo, concentration not stated
[2] = input ligand: microRNA oligo, concentration not stated
[3] = Eterna round: R95, input ligand: FMN 200 uM
[4] = Eterna round: R95, input ligand: none

Sequence | apparent KD of MS2 coat protein [1] | apparent KD of MS2 coat protein (input ligand: FMN 200 uM) | apparent KD of MS2 coat protein [2] | apparent KD of MS2 coat protein (input ligand: none) | apparent KD of MS2 coat protein [3] | apparent KD of MS2 coat protein [4]
ACCUUACAUGAGGAUCACCCAUGUCAGGAUAUCUCGGGCGGCUGAGGACCAGCCGCCCAGAGAAGGGACGAGGA [Leleusarra] (puzzle: Exclusion 1) | 12.5 nM |  |  |  |  | 
CUAGCGAUUGUAGGAUAUCGGACUGUUUCAGUCUGAGAAGGACAUGAGGAUCACCCAUGUGGAGGAUCGUGAGAUCCACGCUAG [JL ENG1 3.81] (Eterna round: R96, puzzle: Exclusion NG 1) |  | 136 nM | 24.6 nM | 34.5 nM |  | 
AAAUUGUGAGGAUAUCAGGUGUGCUAGCGUACUGGUACAUCUGAGAAGGCACAUGAGGAUCACCCAUGUUUCUU [Mat - Exclusion 4 - Mod of JL - D43] (puzzle: Exclusion 4) | 15.2 nM |  |  |  |  | 
CAGCUGAAAGUGAGGAUAUCUAGAGCUUCGGCUCUAGAGAAGGCACAUGAGGAUCACCCAUGUCUCAACAGCUG [BmEx4/1-A1] (Eterna round: R97, puzzle: Brourd's mod of Exclusion 4) |  | 59.5 nM |  | 16.9 nM |  | 
AAUAACAGAGGAUAUACUGUUUUAUGUGUUUAUUAUUUUAAACAUGAGGAUCACCCAUGUAGAAGGCUGAAUAA [JMF 13] (puzzle: Exclusion 2) | 37 nM |  |  |  |  | 
UUGGUUGUGGUAGGAUAUCCGUUGGAAACUGUUGGAGAAGGACCACAGUCACUGGGUCUUUGUUUGGUGGAGUGGAAGAACCAU [pwkr exNG1 F6.18] (Eterna round: R96, puzzle: Exclusion NG 1) |  | 166 nM | 532 nM | 324 nM |  | 
AUCAUGUAAGGAUAUCUUACAUGUGACUUCGGUCACUGUCAAGAGAAGGUACAUGAGGAUCACCCAUGUAUGAC [Ex4-3: 51] (puzzle: Exclusion 4) | 16.8 nM |  |  |  |  | 
AGAUCACAUGAGGAUCACCCAUGUCAGGAUAUCGUCACUGGAGCUUCGGCUCCAGUGACGAGAAGGGAUAAUUA [E1/4-A1] (Eterna round: R97, puzzle: Exclusion 1) |  | 124 nM |  | 55 nM |  | 
AUAAAUAAUGCAGGAUAUGUCGGCGAAAGGCCGGCAGAAGGGCAGCGUGGAUGUAUCCUGAACAUGAGGAUCACCCAUGUGAAA [Ederisbi] (Eterna round: R96, puzzle: Exclusion NG 1) |  | 209 nM | 168 nM | 347 nM |  | 
GCAGAGGUAGUGAGGAUAUGCUCUACCUCGGUAGAGCAGAAGGCACAUGAGGAUCACCCAUGUGAUUCUUCUGC [Omei Ex4B B9] (Eterna round: R97, puzzle: Brourd's mod of Exclusion 4) |  | 15 nM |  | 13.2 nM |  | 
GCACAUGAGGAUCACCCAUGUCAAUGGGAAUUCCUUCUUCAACAGGAUAUCCGAUGGAGAACGUCGGAGAAGGGUUCGCCAGUA [Eternabot solution 15] (Eterna round: R96, puzzle: Exclusion NG 3) |  | 31.4 nM | 19.5 nM | 25.7 nM |  | 
CCGAGGUGGCGGUCCUAUGACAUGAGGAUCACCCAUGUACCUCGCCACGAGCCUUUUGCUCAUCUUAUAAUUCUCGG [Bienve] (puzzle: Sensor v3, turn-off variant 1) | 20.6 nM |  |  |  | 17.4 nM | 17.2 nM
CUCUUGGCAGGAUAUGCUCUCUUAGACAUGAGGAUCACCCAUGUGUUCAUUCUUUCUUUUGCAGAAGGGCCUUAAC [JR_E5_Sub046] (Eterna round: R96, puzzle: Exclusion 5) |  | 128 nM | 57.9 nM | 76.9 nM |  | 
AAUCCACAUGAGGAUCACCCAUGUGAGGAUAUGAUACUAUGUACUUCGGUACAUAGUAUCAGAAGGCACGGAUC [Ex1-3: 53] (puzzle: Exclusion 1) | 29.9 nM |  |  |  |  | 
GAAGAGACAGGAUAUACAUGAGGAUCACCCAUGUGAGGAGGUUGGAGGCGGAGAAGGUGUAGAAGGGUCAAAGA [JR_Exclu3_Sub022] (puzzle: Exclusion 3) | 36 nM |  |  |  | 41.5 nM | 51.4 nM
